Data from US20100093086A1 (RESEARCH FOUNDATION OF STATE UNIVERSITY OF NEW YORK, published 2010).
Bridges are numbered along the chain shown (N, C = ends). [ ]: non-standard residue; d: D form. code β = tetrazole-bearing lysine Lys(tetrazole), tetrazole half of pyrazoline cross-linker; L3 = not defined here

T1: GST-MDMX containing full-length human MDMX (human, UniProt O15151 1-490)
T1 construct: mature; Expressed in E. coli and purified on glutathione-agarose; not shown: GST tag
T1 sequence (looked up): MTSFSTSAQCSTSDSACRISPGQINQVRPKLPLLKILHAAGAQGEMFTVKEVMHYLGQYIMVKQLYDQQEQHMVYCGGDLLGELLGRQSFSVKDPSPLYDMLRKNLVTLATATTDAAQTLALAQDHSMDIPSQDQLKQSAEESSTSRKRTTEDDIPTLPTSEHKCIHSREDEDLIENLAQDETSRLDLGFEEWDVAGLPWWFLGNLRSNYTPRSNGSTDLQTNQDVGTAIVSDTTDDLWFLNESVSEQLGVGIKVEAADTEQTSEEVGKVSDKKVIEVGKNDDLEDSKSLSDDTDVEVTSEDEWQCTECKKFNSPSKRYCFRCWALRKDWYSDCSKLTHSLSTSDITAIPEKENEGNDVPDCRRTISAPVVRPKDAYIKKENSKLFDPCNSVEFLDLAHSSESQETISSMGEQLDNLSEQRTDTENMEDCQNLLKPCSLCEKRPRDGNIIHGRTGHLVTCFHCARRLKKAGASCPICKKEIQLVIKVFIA

B1: sPDI-4 (peptide)
peptide: Ac-LTFXHYWXQLTS-NH2
modifications: bridge 4-8 via L3; not fully specified (residues 4, 8); printed as LTFαHYWβQLTS
notes: Stapled peptide
B2: sPDI-9 (peptide)
peptide: Ac-LTFXHYWXRLRS-NH2
modifications: bridge 4-8 via L3; not fully specified (residues 4, 8); printed as LTFαHYWβRLRS
notes: Stapled peptide
B3: sPDI-8 (peptide)
peptide: Ac-LTFXHYWXRLTS-NH2
modifications: bridge 4-8 via L3; not fully specified (residues 4, 8); printed as LTFαHYWβRLTS
notes: Stapled peptide
B4: sPMI-2 (peptide)
peptide: Ac-TSFAXYWNXLSP-NH2
modifications: bridge 5-9 via L3; not fully specified (residues 5, 9); printed as TSFAαYWNβLSP; also: pyrazoline cross-linker L3 between α and β
notes: Stapled peptide
B5: sPMI-5 (peptide)
peptide: Ac-TSFXQYW[code β]RLRP-NH2
modifications: bridge 4-8; not fully specified (residue 4, bridges); printed as TSFαQYWβRLRP; also: pyrazoline cross-linker L3 between α and β
notes: Stapled peptide
B6: sPMI-4 (peptide)
peptide: Ac-TSFXRYWXRLSP-NH2
modifications: bridge 4-8 via L3; not fully specified (residues 4, 8); printed as TSFαRYWβRLSP; also: pyrazoline cross-linker L3 between α and β
notes: Stapled peptide
B7: sPMI-3 (peptide)
peptide: Ac-TSFXQYWNLLXP-NH2
modifications: bridge 4-11 via L3; not fully specified (residues 4, 11); printed as TSFαQYWNLLβP; also: pyrazoline cross-linker L3 between α and β
notes: Stapled peptide

Each binder was assayed against T1, GST-MDMX containing full-length human … (assay: competition ELISA: peptide + GST-MDMX on plated His6-p53).
Protocol: ELISA plates were incubated with 2.5 μg/ml His6-p53 in phosphate-buffered saline (PBS) for 16 h. After washing with PBS+0.1% Tween 20 (PBST), the plates were blocked with PBS+5% nonfat dry milk+0.1% Tween 20 (PBSMT) for 0.5 hour. The peptides were dissolved in DMSO. […] The plates were developed by incubation with TMB peroxidase substrate (KPL) and measured by absorbance at 450 nm.

IC50 | Binder
390 nM | B1
525 nM | B2
231 nM | B3
3650 nM | B4
298 nM | B5
1840 nM | B6
1490 nM | B7

What follows are binders tested against T2, GST-MDM2 containing full-length human MDM2 (human, UniProt Q00987 1-491) (assay: competition ELISA: peptide + GST-MDM2 on plated His6-p53).
T2 construct: mature; Expressed in E. coli and purified on glutathione-agarose; also called GST-HDM2; not shown: GST tag
T2 sequence (Q00987 whole entry): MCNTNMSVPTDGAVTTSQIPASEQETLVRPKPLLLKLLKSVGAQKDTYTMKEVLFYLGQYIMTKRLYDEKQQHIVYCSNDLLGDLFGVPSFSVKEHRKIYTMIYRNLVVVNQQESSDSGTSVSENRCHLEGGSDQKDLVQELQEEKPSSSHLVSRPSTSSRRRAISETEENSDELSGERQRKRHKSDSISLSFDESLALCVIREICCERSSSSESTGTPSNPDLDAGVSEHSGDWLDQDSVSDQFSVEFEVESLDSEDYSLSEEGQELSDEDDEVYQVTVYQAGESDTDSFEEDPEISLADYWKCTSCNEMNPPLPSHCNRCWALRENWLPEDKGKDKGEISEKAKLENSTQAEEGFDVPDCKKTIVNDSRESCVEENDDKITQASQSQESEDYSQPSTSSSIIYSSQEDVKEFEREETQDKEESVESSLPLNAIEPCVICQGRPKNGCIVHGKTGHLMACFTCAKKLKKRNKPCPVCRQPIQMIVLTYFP

IC50 | Binder
87 nM | B1
179 nM | B2
55 nM | B3
1080 nM | B4
597 nM | B5
1230 nM | B6
23 nM | B7
